Measurements reported in US20250179151A1, “SPIKE FURIN CLEAVAGE IS A SARS-COV-2 TARGETING STRATEGY TO BREAK THE CHAIN OF INFECTION CYCLE” (University of Virginia Patent Foundation, priority 2022, published 2025).
Entries after “also recorded” stand apart in the source; their conditions may differ. Peptide text beside a SMILES is read from it. * marks the point of attachment. Cbz = O=C(OCc1ccccc1)*

Tests used:
spike S1/S2 cleavage = type: cell-based, SARS-CoV-2
spike S0 = type: cell-based, SARS-CoV-2
[1] = test system: pseudoviral spike S0 and S2; type: cell-based, SARS-CoV-2
furin [2] = target: T1, furin (Homo sapiens, UniProt P09958); type: biochemical; settings: peptide inserted in rDR5-IgG4-Fc; 10 ng recombinant furin
spike cleavage at S1/S2 = type: cell-based, SARS-CoV-2
293-ACE2 cells = type: cell-based; settings: spike transfected 293-ACE2 cells, 24 hours
[3] = target: T2, IgG4-Fc tagged rFOLR1 antigen (UniProt P15328 25-233); experiment: ELISA, IgG4-Fc tagged rFOLR1 coated, detection with anti-IgG1-Fc HRP
T2 construct: extracellular domain; also called recombinant IgG4-Fc FOLR1

spike S0 and S2 = type: cell-based, SARS-CoV-2
furin [4] = target: T1, furin; experiment: BLI binding kinetics against immobilized biotinylated furin; settings: compared to cFuG1
Method: (§1) FIGS. 2A-2C. Furin inhibitory function and flexibility of Fc-extended FuG1 peptide strategy. (FIG. 2A) The binding kinetics of immobilized biotinylated furin against indicated farletuzumab-FuG1, farletuzumab-cFuG1, and Farletuzumab-IgG1 were measured using BLI. (FIGS. 2B and 2C) FuG1 and cFuG1 antibodies were tested using a competitive inhibitory furin assay kit, which measures fluorescent signal as an indicator of the protease activity kinetics.
Binding studies by BioLayer Interferometry (BLI). Binding measurements were performed using Bio-Layer Interferometry on FortéBio Red Octet 96 instrument (Pall) as described in Shivange et al., 2018. Biotin-Streptavidin based sensors were employed for the studies. Recombinant Fc linked DR5 variants were biotinylated using EZ-Link Sulfo-NHS—SS-Biotin (Thermo Scientific 21331) following the manufacturer's instructions. Unreacted Sulfo-NHS—SS-Biotin reaction was quenched by 50 mM Tris-Cl pH 7.4 and removed via dialyzing against PBS. For binding analysis biotinylated antigen (1 μg/mL) were immobilized on streptavidin (SA) biosensors (Pall) for 300 sec to ensure saturation. Associate and dissociation reactions were set in 96-well microplates filled with 200 μL of unbiotinylated DR5 agonist for 900 seconds. All interactions were conducted at 37° C. in PBS buffer containing 2 mg/ml BSA. These binding observations were also confirmed by biotinylating the agonist antibodies and probed against unbiotinylated DR5-Fc variants. Kinetic parameters (KON and KOFF) and affinities (KD) were analyzed using Octet data analysis software, version 9.0 (Pall).
To confirm furin binding and competing function, farletuzumab-FuG1 and farletuzumab-cFuG1 were expressed in the presence of furin inhibitors. Purified antibodies were analyzed for their Fc-extended peptide binding to biotinylated furin using BLI. […] The latter indicated a potential higher competitive furin occupancy time of FuG1 peptide with the increased antibody concentration (Hoare et al., 2020).

furin [5] = target: T1, furin; experiment: Furin protease activity assay (fluorogenic substrate); type: biochemical; settings: particularly at higher doses; compared with farletuzumab-cFuG1
Method: as §1
Furin protease activity assay. Different concentrations of farletuzumab-FuGi, farletuzumab-cFuGi (25-250 ng) or furin assay buffer (negative control) were pre-incubated with 25 ng of furin (50 μl, 0.5 ng/μl in furin assay buffer) in a total reaction volume of 100 μl for 10 minutes at room temperature. […] The fluorescence intensity of the reaction mixture was monitored at excitation wavelength of 380 nm and detection of emission at wavelength 460 nm using 96 well microplate reader (BioTek Instruments Inc, USA). […] For kinetic study, fluorescence was measured immediately after adding the protease substrate and data was recorded every 1 minute for 15 min at Ex/Em=380 nm/460 nm.
To confirm furin binding and competing function, farletuzumab-FuG1 and farletuzumab-cFuG1 were expressed in the presence of furin inhibitors. Purified antibodies were analyzed for their Fc-extended peptide binding to biotinylated furin using BLI. […]

[6] = test system: 293-ACE2 and RFP-stable HCC-1806 cells; experiment: Syncytia in Spike-EGFP transfected co-culture of 293-ACE2 and HCC-1806 cells; type: cell-based; settings: co-cultures, 100 μg antibody

T1 sequence (P09958 108-794): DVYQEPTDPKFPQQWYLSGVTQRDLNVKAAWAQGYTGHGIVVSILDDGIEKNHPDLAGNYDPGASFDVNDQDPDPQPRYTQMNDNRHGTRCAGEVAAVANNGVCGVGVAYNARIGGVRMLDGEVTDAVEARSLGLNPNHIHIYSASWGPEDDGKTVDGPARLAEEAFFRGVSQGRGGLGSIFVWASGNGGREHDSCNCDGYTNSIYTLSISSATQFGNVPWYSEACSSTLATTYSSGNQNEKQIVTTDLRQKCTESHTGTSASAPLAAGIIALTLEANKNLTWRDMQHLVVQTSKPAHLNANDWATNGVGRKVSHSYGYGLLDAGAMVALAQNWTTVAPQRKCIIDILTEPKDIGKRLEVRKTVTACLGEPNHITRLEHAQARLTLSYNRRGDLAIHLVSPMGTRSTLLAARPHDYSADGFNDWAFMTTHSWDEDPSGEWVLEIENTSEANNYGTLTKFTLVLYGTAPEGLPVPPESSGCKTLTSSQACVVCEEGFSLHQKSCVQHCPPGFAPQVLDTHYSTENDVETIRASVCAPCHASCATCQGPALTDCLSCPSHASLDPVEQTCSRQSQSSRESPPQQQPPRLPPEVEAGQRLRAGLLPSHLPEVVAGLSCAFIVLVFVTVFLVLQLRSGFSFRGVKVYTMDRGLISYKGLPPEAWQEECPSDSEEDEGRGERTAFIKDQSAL
T2 sequence (P15328 25-233 limits assumed): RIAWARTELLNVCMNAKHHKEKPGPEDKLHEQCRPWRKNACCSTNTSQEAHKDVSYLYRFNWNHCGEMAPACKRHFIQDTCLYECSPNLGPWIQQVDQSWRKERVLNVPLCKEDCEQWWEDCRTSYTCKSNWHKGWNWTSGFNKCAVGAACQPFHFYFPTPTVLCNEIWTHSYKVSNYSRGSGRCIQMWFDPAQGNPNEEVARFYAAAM

C[C@H]1CCC/C=C/[C@@H]2C[C@H](O)C[C@H]2[C@H](O)/C=C/C(=O)O1 [Bfa, Brefeldin-A]
spike S1/S2 cleavage (spike S1/S2 cleavage): completely inhibited

CC(C)C[C@@H](C=O)NC(=O)[C@H](CC(C)C)NC(=O)[C@H](CC(C)C)NC(=O)OCc1ccccc1 [MG132] (Cbz-Leu-Leu-Leu-aldehyde)
furin processing of WT and ΔRRAR spike (spike S0): did not interfere | rescue of spike S0 loss (spike S0): partial rescue of spike S0 loss | total spike S0 signal (spike S0): at least two-fold higher; also recorded: significantly increased | pseudoviral S2 fragment generation [1]: remained inhibited | pseudoviral spike S0 destabilization [1]: rescued spike S0 destabilization

EGGGSGRERKARGGCPGS [FuG1 peptide]
cleavage by recombinant furin in vitro (furin [2]): not cleaved

B1: 6.29-IgG1: ACE-2-RBD neutralizing antibody (Rogers et al., 2020); SEQ ID NOs: 11 and 15 (protein)
light: DIQLTQSPSSLSASVGDRVTITCRASQTASSYLNWYQQKPGKAPNLLIYAASSLQSGVPSRFSGSGSVTDFTLTISSLQPEDFATYYCQQSYSTPPTFGQGTKVDIKRTVAAPSVFIFPPSDEQLKSGTASVVCLLNNFYPREAKVQWKVDNALQSGNSQESVTEQDSKDSTYSLSSTLTLSKADYEKHKVYACEVTHQGLSSPVTKSFNRGEC
heavy: QVQLVQSGSELKKPGASVKVSCKASGYTFATYALNWVRQAPGQGLEWMGWVNTNTGSPTYAQGFTGRFVFSFDTSVSTAYLQIRTLKAEDTAVYYCAVYYYDSGSPGWFDPWGQGTLVTVSSASTKGPSVFPLAPSSKSTSGGTAALGCLVKDYFPEPVTVSWNSGALTSGVHTFPAVLQSSGLYSLSSVVTVPSSSLGTQTYICNVNHKPSNTKVDKKVEPKSCDKTHTCPPCPAPEAAGGPSVFLFPPKPKDTLMISRTPEVTCVVVDVSHEDPEVKFNWYVDGVEVHNAKTKPREEQYNSTYRVVSVLTVLHQDWLNGKEYKCKVSNKALPAPIEKTISKAKGQPREPQVYTLPPSREEMTKNQVSLTCLVKGFYPSDIAVEWESNGQPENNYKTTPPVLDSDGSFFLYSKLTVDKSRWQQGNVFSCSVMHEALHNHYTQKSLSLSLGK
inhibition of spike cleavage at S1/S2 (spike cleavage at S1/S2): non-inhibitory | syncytia blockade (293-ACE2 cells): significantly more effective; also recorded: significantly effective

B2: farletuzumab-FuG1 (antibody)
heavy: EVQLVESGGGVVQPGRSLRLSCSASGFTFSGYGLSWVRQAPGKGLEWVAMISSGGSYTYYADSVKGRFAISRDNAKNTLFLQMDSLRPEDTGVYFCARHGDDPAWFAYWGQGTPVTVSSASTKGPSVFPLAPSSKSTSGGTAALGCLVKDYFPEPVTVSWNSGALTSGVHTFPAVLQSSGLYSLSSVVTVPSSSLGTQTYICNVNHKPSNTKVDKKVEPKSCDKTHTCPPCPAPEAAGGPSVFLFPPKPKDTLMISRTPEVTCVVVDVSHEDPEVKFNWYVDGVEVHNAKTKPREEQYNSTYRVVSVLTVLHQDWLNGKEYKCKVSNKALPAPIEKTISKAKGQPREPQVYTLPPSREEMTKNQVSLTCLVKGFYPSDIAVEWESNGQPENNYKTTPPVLDSDGSFFLYSKLTVDKSRWQQGNVFSCSVMHEALHNHYTQKSLSLSLPGKEGGGSGRERKARGGCPGS
light: DIQLTQSPSSLSASVGDRVTITCSVSSSISSNNLHWYQQKPGKAPKPWIYGTSNLASGVPSRFSGSGSGTDYTFTISSLQPEDIATYYCQQWSSYPYMYTFGQGTKVEIKRTVAAPSVFIFPPSDEQLKSGTASVVCLLNNFYPREAKVQWKVDNALQSGNSQESVTEQDSKDSTYSLSSTLTLSKADYEKHKVYACEVTHQGLSSPVTKSFNRGEC
notes: also called Farle-FuG1; Farletuzumab-FuG1 antibody
binding result [3]: binds

B3: farletuzumab-FuG1: anti-FOLR1 farletuzumab with FuG1 Fc-extended peptide (SEQ ID NO: 44) (antibody)
heavy: EVQLVESGGGVVQPGRSLRLSCSASGFTFSGYGLSWVRQAPGKGLEWVAMISSGGSYTYYADSVKGRFAISRDNAKNTLFLQMDSLRPEDTGVYFCARHGDDPAWFAYWGQGTPVTVSSASTKGPSVFPLAPSSKSTSGGTAALGCLVKDYFPEPVTVSWNSGALTSGVHTFPAVLQSSGLYSLSSVVTVPSSSLGTQTYICNVNHKPSNTKVDKKVEPKSCDKTHTCPPCPAPEAAGGPSVFLFPPKPKDTLMISRTPEVTCVVVDVSHEDPEVKFNWYVDGVEVHNAKTKPREEQYNSTYRVVSVLTVLHQDWLNGKEYKCKVSNKALPAPIEKTISKAKGQPREPQVYTLPPSREEMTKNQVSLTCLVKGFYPSDIAVEWESNGQPENNYKTTPPVLDSDGSFFLYSKLTVDKSRWQQGNVFSCSVMHEALHNHYTQKSLSLSLPGKEGGGSGRERKARGGCPGS
light: DIQLTQSPSSLSASVGDRVTITCSVSSSISSNNLHWYQQKPGKAPKPWIYGTSNLASGVPSRFSGSGSGTDYTFTISSLQPEDIATYYCQQWSSYPYMYTFGQGTKVEIKRTVAAPSVFIFPPSDEQLKSGTASVVCLLNNFYPREAKVQWKVDNALQSGNSQESVTEQDSKDSTYSLSSTLTLSKADYEKHKVYACEVTHQGLSSPVTKSFNRGEC
S0 and S2 in co-culture lysates (spike S0 and S2): only partially reduced S2 conversion | furin association rate (KON) (furin [4]): lower | furin binding affinity (KD) (furin [4]): lower | furin dissociation rate (KOFF), fold reduced (furin [4]): ~10 fold | inhibition of furin protease activity (furin [5]): significant inhibition | syncytia load reduced [6]: ~30%
